B1: TMPRSS4 Ab76 scFv (VH-VL) (scFv)
scFv: EVQLLESGGGLVQPGGSLRLSCAASGFTFSSYAMSWVRQAPGKGLEWVSAISGSGGNAYYADSVKGRFTISRDNAKNSLYLQMNSLRAEDTAVYYCAKNSWGSYRPRAFDIWGQGTMVTVSSGGGGSGGGGSGGGGSDIVMTQSPDSLAVSLGERATINCKSSQSVLYSSNNKNYLAWYQQKPGQPPKLLIYWASTRASGVPDRFSGSGSGTDFTLTISSLQAEDVAVYYCQQYLSLPYTFGQGTKVEIK
notes: on monoclonal phage in the screen
B2: TMPRSS4 Ab65 scFv (VH-VL) (scFv)
scFv: QVQLVQSGAEVKKPGASVKVSCKASGYTFTGYYMHWVRQAPGQGLEWMGWMNPNSGNTGYAQKFQGRVTMTRDTSTSTVYMELSSLRSEDTAVYYCAGRKWLGLDFYNWFDPWGQGTLVTVSSGGGGSGGGGSGGGGSDIVMTQSPDSLAVSLGERATINCKSSQSVLYSSNNKNYLAWYQQKPGQPPKLLIYWASTRQSGVPDRFSGSGSGTDFTLTISSLQAEDVAVYYCQQYYSTPWTFGQGTKVEIK
notes: as for B1
B3: TMPRSS4 Ab61 scFv (VH-VL) (scFv)
scFv: QVQLVQSGAEVKKPGASVKVSCKASGYTFTNYYMHWVRQAPGQGLEWMGWMNPNSGNTGYAQNLQGRVTMTRDTSTSTVYMELSSLRSEDTAVYYCARGRTWFRSGMDVWGQGTTVTVSSGGGGSGGGGSGGGGSEIVMTQSPATLSVSPGERATLSCRASQSVSSYLAWYQQKPGQAPRLLIYGASTRATGIPARFSGSGSGTEFTLTISSLQSEDFAVYYCQQYDISVTFGPGTKVDIK
notes: as for B1
B4: TMPRSS4 Ab74 scFv (VH-VL) (scFv)
scFv: EVQLLESGGGLVQPGGSLRLSCAASGFTFSSYAMHWVRQAPGKGLEWVSSISSSSTYIHYADSVKGRFTISRDNSKNTLYLQMNSLRAEDTAVYYCARVGRYYGSGSSLVDYWGQGTLVTVSSGGGGSGGGGSGGGGSDIQMTQSPSSLSASVGDRVTITCRASQSVSSWLAWYQQKPGKAPKLLIYDASSLQSGVPSRFSGSGSGTDFTLTISSLQPEDFATYYCQQAKSFPPTFGQGTKVEIK
notes: as for B1
B5: TMPRSS4 Ab66 scFv (VH-VL) (scFv)
scFv: QVQLVQSGAEVKKPGSSVKVSCKASGGTFSSYAISWVRQAPGQGLEWVGGIMPIFGTANYAQKFQGRVTITADESPSTAYMELSSLRSEDTAVYYCATGRRELLNWGQGTLVTVSSGGGGSGGGGSGGGGSEIVMTQSPATLSVSPGERATLSCRASQSVNSRFLAWYQQKPGQAPRLLIYGASTRATGIPARFSGSGSGTEFTLTISSLQSEDFAVYYCMQGTHWPYTFGQGTKVEIK
notes: as for B1
B6: TMPRSS4 Ab69 scFv (VH-VL) (scFv)
scFv: EVQLLESGGGLVQHGGSLRLSCAASGFAFSSYVLHWVRQAPGKGLEWVSSISSSSSYIYYADSVKGRFTISRDNSKNTLYLQMNSLRAEDTAVYYCARGDRYPGLPNYWGQGTLVTVSSGGGGSGGGGSGGGGSDIQMTQSPSSLSASVGDRVTITCRASQGISSWLAWYQQKPGKAPKLLIYQASNKDTGVPSRFSGSGSGTDFTLTISSLQPEDFATYYCQQSYRIPWTFGQGTKVEIK
notes: as for B1
B7: TMPRSS4 Ab60 scFv (VH-VL) (scFv)
scFv: QVQLVQSGAEVKKPGASVKVSCKASGYSFTTYYIHWVRQAPGQGLEWMGIINPSGGSTSYAQKFQGRVTMTRDTSTSTVYMELSSLRSEDTAVYYCARGGYYGSGYNSVGYWGPGTLVTVSSGGGGSGGGGSGGGGSEIVMTQSPATLSVSPGERATLSCRASQSVSSNTLAWYQQKPGQAPRLLIYGASTRATGIPARFSGSGSGTEFTLTISSLQSEDFAVYYCQQYGSSPLTFGPGTKVDIK
notes: as for B1
B8: TMPRSS4 Ab75 scFv (VH-VL) (scFv)
scFv: EVQLLESGGGLVQPGGSLRLSCAASGFTFSSYAMSWVRQAPGKGLEWVSSISSASSYKYYADSVKGRFTISRDNSKNTLYLQMNSLRAEDTAVYYCARDIYSSGWRGYYYYGMDVWGQGTTVTVSSGGGGSGGGGSGGGGSDIQMTQSPSSLSASVGDRVTITCRASQGIRNDLNWYQQKPGKAPKLLIYAATRLQSGVPSRFSGSGSGTDFTLTISSLQPEDFATYYCQQAHSFPYSFGQGTRLEIK
notes: as for B1
B9: TMPRSS4 Ab72 scFv (VH-VL) (scFv)
scFv: EVQLLESGGGLVQPGGSLRLSCAASGFTFGAYVMHWVRQAPGKGLEWVSSISGGSTYYADSVKGRFTISRDNSKNTLYLQMNSLRAEDTAVYYCARHPVRGVIGAGWFDPWGQGTLVTVSSGGGGSGGGGSGGGGSDIQMTQSPSSLSASVGDRVTITCRASQNISRWLAWYQQKPGKAPKLLIYAASSLQSGVPSRFSGSGSGTDFTLTISSLQPEDFATYYCQQAISFPLTFGGGTKVEIK
notes: as for B1
B10: TMPRSS4 Ab67 scFv (VH-VL) (scFv)
scFv: QVQLVQSGAEVKKPGSSVKVSCKASGYTFTSYDINWVRQAPGQGLEWMGGIIPIFGTANYAQKFQGRVTITADESTSTAYMELSSLRSEDTAVYYCATTPGDAFDIWGQGTMVTVSSGGGGSGGGGSGGGGSDIVMTQSPDSLAVSLGERATINCKSSQSVLYSSNNKNYLAWYQQKPGQPPKLLIYWASTRESGVPDRFSGSGSGTDFTLTISSLQAEDVAVYYCQQYSDTPLTFGQGTKVEIK
notes: as for B1
B11: TMPRSS4 Ab71 scFv (VH-VL) (scFv)
scFv: EVQLLESGGGLVQPGGSLRLSCAASGFMFDYYAMHWVRQAPGKGLEWVSLISYDGRNKYYADSVKGRFTISRDNSKNTLYLQMNSLRAEDTAVYYCARPGSYSRFQHWGQGTLVTVSSGGGGSGGGGSGGGGSDIQMTQSPSSLSASVGDRVTITCRASQGISNNLNWYQQKPGKAPKLLIYAASSLQSGVPSRFSGSGSGTDFTLTISSLQPEDFATYYCQQANNFPITFGQGTKVEIK
notes: as for B1
B12: TMPRSS4 Ab62 scFv (VH-VL) (scFv)
scFv: QVQLVQSGAEVKKPGASVKVSCKASGYTFTDYYIHWVRQAPGQGLEWMGWISTYNGNTNYAQKLQGRVTMTRDTSTSTVYMELSSLRSEDTAVYYCARGMVRGMDVWGQGTMVTVSSGGGGSGGGGSGGGGSDIVMTQSPDSLAVSLGERATINCKSSQSVLYSSNNKNYLAWYQQKPGQPPKLLIYWASTRESGVPDRFSGSGSGTDFTLTISSLQAEDVAVYYCQQYYTTPWTFGQGTRLEIK
notes: as for B1
B13: TMPRSS4 Ab64 scFv (VH-VL) (scFv)
scFv: QVQLVQSGAEVKKPGASVKVSCKASGYTFTGYYMHWVRQAPGQGLEWMGMINPSGGGTTYAQKFQGRVTMTRDTSTSTVYMELSSLRSEDTAVYYCARDRRSMITFRTDYWGQGTLVTVSSGGGGSGGGGSGGGGSDIVMTQSPDSLAVSLGERATINCKSSQSVLYSSNNKNYLAWYQQKPGQPPKLLIYWASTRESGVPDRFSGSGSGTDFTLTISSLQAEDVAVYYCQQYYSTPYTFGQGTKLEIK
notes: as for B1
B14: TMPRSS4 Ab70 scFv (VH-VL) (scFv)
scFv: EVQLLESGGGLVQPGGSLRLSCAASGFAFSGTWMQWVRQAPGKGLEWVSDISGSSRDTNYADSVKGRFTISRDNSKNTLYLQMNSLRAEDTAVYYCAKDHWDSYGYLDYWGQGTLVTVSSGGGGSGGGGSGGGGSDIQMTQSPSSLSASVGDRVTITCRASQSISGWLAWYQQKPGKAPKLLIYAASTLRDGVPSRFSGSGSGTDFTLTISSLQPEDFATYYCQQANSFPLTFGQGTKVEIK
notes: as for B1
B15: TMPRSS4 Ab8 scFv (VH-VL) (scFv)
scFv: QVQLVQSGAEVKKPGASVKVSCKASGYRFTSQYMHWVRQAPGQGLEWMGIINPSGGSTSYAQKFQGRVTMTRDTSTSTVYMELSSLRSEDTAVYYCARGRIAVAGHPLGYWGQGTLVTVSSGGGGSGGGGSGGGGSDIQMTQSPSSLSASVGDRVTITCRASQSISSWLAWYQQKPGKAPKLLIYGASSLQSGVPSRFSGSGSGTDFTLTISSLQPEDFATYYCQQANSFPPTFGGGTKVEIK
notes: as for B1
B16: TMPRSS4 Ab77 scFv (VH-VL) (scFv)
scFv: QVQLVQSGAEVKKPGASVKVSCKASGNIFTAQYMHWVRQAPGQGLEWMGWMNPNTVYTGSAQKFQGRVTMTRDTSTSTVYMELSSLRSEDTAVYYCARDWVGDGYNSFDYWGQGTLVTVSSGGGGSGGGGSGGGGSDIVMTQSPDSLAVSLGERATINCKSSQSVLYSSNNKNYLAWYQQKPGQPPKLLIYWASTRESGVPDRFSGSGSGTDFTLTISSLQAEDVAVYYCQQYYTTPFTFGPGTKVDIK
notes: as for B1
B17: TMPRSS4 Ab78 scFv (VH-VL) (scFv)
scFv: EVQLLESGGGLVQPGGSLRLSCAASGFTFSSYGMNWVRQAPGKGLEWVSAISGSGGRTYYADSVKGRFTISRDNAKNSLYLQMNSLRAEDTAVYYCAKGTYYSSPKYSFDYWGQGTLVTVSSGGGGSGGGGSGGGGSDIQMTQSPSSLSASVGDRVTITCRASQDIKNFLAWYQQKPGKAPKLLIYAASSLQSGVPSRFSGSGSGTDFTLTISSLQPEDFATYYCQQSYSTPWTFGQGTKLEIK
notes: as for B1
B18: TMPRSS4 Ab63 scFv (VH-VL) (scFv)
scFv: QVQLVQSGAEVKKPGASVKVSCKASGYTFTGYRMHWVRQAPGQGLEWMGVINPNTGTARFAQKFQGRVTMTRDTSTSTVYMELSSLRSEDTAVYYCASVGVYWYFDLWGRGTLVTVSSGGGGSGGGGSGGGGSDIVMTQSPDSLAVSLGERATINCKSSQSVLYSSNNKNYLAWYQQKPGQPPKLLIYWASTRESGVPDRFSGSGSGTDFTLTISSLQAEDVAVYYCQQYYSAPLTFGGGTKVEIK
notes: as for B1
B19: TMPRSS4 Ab9 scFv (VH-VL) (scFv)
scFv: QVQLVQSGAEVKKPGASVKVSCKASGYTFTRYYMHWVRQAPGQGLEWMGWINPNSGGTNYAQKFQGRVTMTRDTSTSTVYMELSSLRSEDTAVYYCARGGSWGSGPLGYWGQGTLVTVSSGGGGSGGGGSGGGGSDIQMTQSPSSLSASVGDRVTITCQASQDISRFLHWYQQKPGKAPKLLIYGASNLKSGVPSRFSGSGSGTDFTLTISSLQPEDFATYYCQQSYSTPPTFGGGTKVEIK
notes: as for B1
B20: TMPRSS4 Ab7 scFv (VH-VL) (scFv)
scFv: QVQLVQSGAEVKKPGASVKVSCKASGYTFSRYFMHWVRQAPGQGLEWVGWINPNSGNTGYAQKFQGRVTMTRDTSTSTVYMELSSLRSEDTAVYYCARVVTGGRLDVWGQGTTVTVSSGGGGSGGGGSGGGGSEIVMTQSPATLSVSPGERATLSCRASQRVSNNYLAWYQQKPGQAPRLLIYGASTRASGIPARFSGSGSGTEFTLTISSLQSEDFAVYYCQQYGSTPYTFGQGTKVEIK
notes: as for B1

The target of this experiment is T1, Human TMPRSS4 (Transmembrane protease, serine 4), wild type full length (human, UniProt Q9NRS4 1-437).
T1 construct: Type II membrane protein over-expressed on HEK293T cells (also endogenous on H1975 and LUDLU-1 cells); also called TMPRSS4 WT; HEK293T-TMPRSS4
T1 sequence (Q9NRS4 whole entry): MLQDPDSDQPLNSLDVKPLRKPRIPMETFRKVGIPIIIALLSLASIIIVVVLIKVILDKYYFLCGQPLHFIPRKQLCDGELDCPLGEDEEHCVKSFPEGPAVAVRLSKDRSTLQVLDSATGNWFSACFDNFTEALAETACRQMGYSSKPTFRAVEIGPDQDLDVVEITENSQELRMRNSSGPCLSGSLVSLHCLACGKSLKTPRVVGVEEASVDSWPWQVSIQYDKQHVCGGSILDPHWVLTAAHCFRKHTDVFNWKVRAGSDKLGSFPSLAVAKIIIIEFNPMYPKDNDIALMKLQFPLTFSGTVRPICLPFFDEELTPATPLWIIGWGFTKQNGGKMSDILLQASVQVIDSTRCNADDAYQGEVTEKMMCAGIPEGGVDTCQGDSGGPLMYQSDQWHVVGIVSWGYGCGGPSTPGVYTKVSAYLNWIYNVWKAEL
The experiment in a line: flow cytometry, monoclonal phage on HEK293T-TMPRSS4 cells.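 Further: bound phage detected with a PE-labelled mouse anti-M13 monoclonal antibody, read by flow cytometry.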
As to B1, the binding result is on record as “binds”. With B2 the entry was “binds”; with B3, “binds”.

As to B4, the binding result is “binds”. With B5 the entry was “binds”. In the case of B6, the binding result is given as “binds”.

With B7, the binding result is listed as “binds”. With B8 the entry was “binds”; with B9, “binds”; with B10, “binds”. With B11 the entry was “binds”; with B12, “binds”. On to B13, for which the binding result is “binds”. In the case of B14 it was “binds”; in that of B15, “binds”; in that of B16, “binds”. B17: the binding result is listed as “binds”. With B18 the entry was “binds”; with B19, “binds”; with B20, “binds”.
